Patent US20250302956A1

Legend:
Assay in all cases: cell-based or functional assay
[1] = target: LAMWITQC (SEQ ID NO: 2) presented by HLA-A02 on T2 cells (human)
[2] = target: LLMWITQC (SEQ ID NO: 1) presented by HLA-A02 on T2 cells (human)
[3] = target: NY-ESO-1 peptide … (SEQ ID NO: 40) presented by HLA-A02 on T2 cells (human)

In the case of native 1G4-α95: TS TCR, the average log 2FC in PresentER library coculture screen, CD8-native 1G4-α95: TS cells (log2 fold change) [1] is reported as -4, the average log 2FC in PresentER library coculture screen, CD8-native 1G4-α95: TS cells (log2 fold change) [2] is reported as -5 and the average log 2FC in PresentER library coculture screen, CD8-native 1G4-α95: TS cells (log2 fold change) [3] is reported as -6.1.
